Laboratory results: publication PMC10591882 (Cell reports, 2023)

Biological target: T1, TBEV envelope protein domain III (EDIII) (Tick-borne encephalitis virus, Western …)
T1 chain: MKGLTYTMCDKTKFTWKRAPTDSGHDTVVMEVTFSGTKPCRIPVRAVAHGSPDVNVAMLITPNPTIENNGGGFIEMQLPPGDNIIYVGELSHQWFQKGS
Assay: cell-based or functional assay

B1: human monoclonal antibody T025 (antibody, V domains shown)
VH: QVQLVESGGGVVQPGRSLRLSCAASGFTFSNYGMHWVRQAPGKGLDWVAVISYDAISKSYADSVEGRFTISRDNSKNTLYLQMNSLRAEDSAVYYCAKSPTAIDPPFDYWGQGTLVTVSS
VL: EIVMTQSPATLSVSPGERATLSCWASQSVSSNLAWYQQKPGQAPRLLIYGASTRATGIPARFSASGSGTEFTLTISSLQSEDFAVYYCQQYNNWPPRFGQGTKVEIK
With B1 the “IC50 of neutralisation of TBEV-Hypr (virus neutralization test on PS cells)” value was 0.0293 µg/mL.
